Assay results taken from patent publication US6258556.

Biological target: human µ opiate receptor (human)

adenyl cyclase activity (cAMP radioimmunoassay) in forskolin-stimulated COS cells: > 30%
Substance: (D-ala^2, N-methyl-phe^4, glyol^5) enkephalin (peptide)
